From patent publication US20160047810A1 (INSTITUT PASTEUR, published 2016) come the findings set out here.

The target of data set [1] is T1, FtsZ (purified, from pET11a-ftsZ), P0A9A6.
T1 chain: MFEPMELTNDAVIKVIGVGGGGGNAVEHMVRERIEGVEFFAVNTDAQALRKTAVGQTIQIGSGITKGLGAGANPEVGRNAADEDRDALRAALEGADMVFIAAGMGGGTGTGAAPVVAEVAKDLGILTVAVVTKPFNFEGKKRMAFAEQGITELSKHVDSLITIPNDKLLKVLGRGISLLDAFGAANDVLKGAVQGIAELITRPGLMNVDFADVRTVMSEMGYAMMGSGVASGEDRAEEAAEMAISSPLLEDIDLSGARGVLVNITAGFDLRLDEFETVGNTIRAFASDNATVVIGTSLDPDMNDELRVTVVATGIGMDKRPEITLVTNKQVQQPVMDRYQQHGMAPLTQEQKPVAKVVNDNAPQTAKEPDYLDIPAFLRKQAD

Data set [2] deals with the molecule itself. As to the kind of experiment: self-association, polymerization assay, ultracentrifugation and western blot.

B1: K12 H6-Lop1Δ1-59Δ303-375 (protein)
chain: WGKREDTKHTPVRGLYMWGGVGRGKTWLMDLFYQSLPGERKQRLHFHRFMLRVHEELTALQGQTDPLEIIADRFKAETDVLCFDEFFVSDITDAMLLGGLMKALFARGITLVATSNIPPDELYRNGLQRARFLPAIDAIKQHCDVMNVDAGVDYRLRTLTQAHLWLSPLHDETRAQMDKLWLALAGGKRENSPTLEINHRPLATMGVENQTLAVSFTTLCVDARSQHDYIALSRLFHTVMLFD
With B1, in data set [1], the “FtsZ polymer proteolysis assay (1 min at 30° C., western blot of the pellet)” value is recorded as “the 73aa C-terminal fragment of Lop1Δ1-59 was required for the proteolytic degradation of FtsZ polymers”.

B2: E. coli K12 Lop1Δ1-59-H6 (protein)
chain: WGKREDTKHTPVRGLYMWGGVGRGKTWLMDLFYQSLPGERKQRLHFHRFMLRVHEELTALQGQTDPLEIIADRFKAETDVLCFDEFFVSDITDAMLLGGLMKALFARGITLVATSNIPPDELYRNGLQRARFLPAIDAIKQHCDVMNVDAGVDYRLRTLTQAHLWLSPLHDETRAQMDKLWLALAGGKRENSPTLEINHRPLATMGVENQTLAVSFTTLCVDARSQHDYIALSRLFHTVMLFDVPVMTRLMESEARRFIALVDEFYERHVKLVVSAEVPLYEIYQGDRLKFEFQRCLSRLQEMQSEEYLKREHLAG
On to B2, for which the “FtsZ polymer proteolysis assay (ultracentrifugation, western blot)” value in data set [1] is given as “incubation of FtsZ polymers with Lop1Δ1-59 in the absence of ATP caused its significant degradation (t=1 min, no FtsZ signal in the soluble fraction)”.

B3: E. coli K12 Lop1-H6 (protein)
chain: MQSVTPTSQYLKALNEGSHQPDDVQKEAVSRLEIIYQELINSTPPAPRTSGLMARVGKLWGKREDTKHTPVRGLYMWGGVGRGKTWLMDLFYQSLPGERKQRLHFHRFMLRVHEELTALQGQTDPLEIIADRFKAETDVLCFDEFFVSDITDAMLLGGLMKALFARGITLVATSNIPPDELYRNGLQRARFLPAIDAIKQHCDVMNVDAGVDYRLRTLTQAHLWLSPLHDETRAQMDKLWLALAGGKRENSPTLEINHRPLATMGVENQTLAVSFTTLCVDARSQHDYIALSRLFHTVMLFDVPVMTRLMESEARRFIALVDEFYERHVKLVVSAEVPLYEIYQGDRLKFEFQRCLSRLQEMQSEEYLKREHLAG
Turning to B3, the “FtsZ polymer proteolysis assay (ultracentrifugation, western blot)” value in data set [1] is recorded as “The FtsZ polymers incubation with Lop1 lead to their slight degradation at t=3 min in an ATP-dependent manner”.

B4: E. coli K12 Lop1K84A-H6 (protein)
chain: MQSVTPTSQYLKALNEGSHQPDDVQKEAVSRLEIIYQELINSTPPAPRTSGLMARVGKLWGKREDTKHTPVRGLYMWGGVGRGATWLMDLFYQSLPGERKQRLHFHRFMLRVHEELTALQGQTDPLEIIADRFKAETDVLCFDEFFVSDITDAMLLGGLMKALFARGITLVATSNIPPDELYRNGLQRARFLPAIDAIKQHCDVMNVDAGVDYRLRTLTQAHLWLSPLHDETRAQMDKLWLALAGGKRENSPTLEINHRPLATMGVENQTLAVSFTTLCVDARSQHDYIALSRLFHTVMLFDVPVMTRLMESEARRFIALVDEFYERHVKLVVSAEVPLYEIYQGDRLKFEFQRCLSRLQEMQSEEYLKREHLAG
On to B4, for which, in data set [1], the “FtsZ polymer proteolysis assay (ultracentrifugation, western blot)” value is on record as “no degradation of FtsZ polymers was observed with LOp1 K84A”.

B5: FtsZ (purified, from pET11a-ftsZ) (other)
chain: MFEPMELTNDAVIKVIGVGGGGGNAVEHMVRERIEGVEFFAVNTDAQALRKTAVGQTIQIGSGITKGLGAGANPEVGRNAADEDRDALRAALEGADMVFIAAGMGGGTGTGAAPVVAEVAKDLGILTVAVVTKPFNFEGKKRMAFAEQGITELSKHVDSLITIPNDKLLKVLGRGISLLDAFGAANDVLKGAVQGIAELITRPGLMNVDFADVRTVMSEMGYAMMGSGVASGEDRAEEAAEMAISSPLLEDIDLSGARGVLVNITAGFDLRLDEFETVGNTIRAFASDNATVVIGTSLDPDMNDELRVTVVATGIGMDKRPEITLVTNKQVQQPVMDRYQQHGMAPLTQEQKPVAKVVNDNAPQTAKEPDYLDIPAFLRKQAD
notes: Used as GTP-induced polymers in the proteolysis assays; also called FtsZ polymers; Z-ring
Regarding B5, the binding result in data set [2] is “binds”.
